Assay results taken from patent publication US20110287512.

Assays:
[1] = tested on: ZFN7263 linker TPNRCPPTKP (artificial); experiment: cell_activity; conditions: yeast, paired with 7264 ZFN
[2] = tested on: ZFN7263 linker TQRPQIPPKP (artificial); experiment: cell_activity; conditions: yeast, paired with 7264 ZFN
[3] = tested on: ZFN7263 linker TPLCQRPMKQKP (artificial); experiment: cell_activity; conditions: yeast, paired with 7264 ZFN
[4] = tested on: ZFN7263 linker TPRPPIPKP center linker F2-F3 TGSQKP replaced by TPRPPIPKP (artificial); experiment: cell_activity; conditions: normalized yeast MEL-1 score
[5] = tested on: ZFN7263 linker TGGGGSQKP center linker F2-F3 TGSQKP replaced by TGGGGSQKP (artificial); experiment: cell_activity; conditions: normalized yeast MEL-1 score
[6] = tested on: ZFN7263 (host) (artificial); experiment: cell_activity
[7] = tested on: ZFN7263 linker TYPRPLLAKP (artificial); experiment: cell_activity; conditions: yeast, paired with 7264 ZFN
[8] = tested on: ZFP8196 linker TSPRLPAPKP (artificial)
[9] = tested on: ZFP8196 linker TGGGGSQKP (artificial)
[10] = tested on: ZFP8196 linker TPDRPISTCKP (artificial)
[11] = tested on: ZFP8196 linker TSSPRSNAKP (artificial)
[12] = tested on: ZFP8196 linker TPDAPKPKP (artificial)
[13] = tested on: ZFP8196 linker TGEGGKP (artificial)
[14] = tested on: ZFP8196 linker TPGLHRPKP (artificial)
[15] = tested on: ZFP8196 linker TGYSIPRPKP (artificial)
[16] = tested on: ZFP8196 linker TVSPAPCRSKP (artificial)
[17] = tested on: ZFP8196 linker TPSHTPRPKP (artificial)
[18] = tested on: ZFP8196 linker TCPRPPTRKP (artificial)
[19] = tested on: ZFP8196 linker LRQKDERP (artificial)
[20] = tested on: ZFP8196 linker TEPRAKPPKP (artificial)
[21] = tested on: ZFP8196 linker 1f center linker F2-F3 TGEKP replaced by TYPRPIAAKP (artificial); experiment: ELONA; conditions: normalized ELISA score
[22] = tested on: ZFP8196 (host, center linker TGEKP) (artificial); experiment: ELONA; conditions: normalized ELISA score
[23] = tested on: ZFP8196 linker 1d center linker F2-F3 TGEKP replaced by TPNRRPAPKP (artificial); experiment: ELONA; conditions: normalized ELISA score
[24] = tested on: ZFP8196 linker 1c center linker F2-F3 TGEKP replaced by THPRAPIPKP (artificial); experiment: ELONA; conditions: normalized ELISA score
[25] = tested on: ZFP7263 linker LRQKDERP (artificial)
[26] = tested on: ZFP7263 linker TPNRCPPTKP (artificial)
[27] = tested on: ZFP7263 linker TPLCQRPMKQKP (artificial)
[28] = tested on: ZFP7263 linker TGGGGSQKP (artificial)
[29] = tested on: ZFP7263 linker TGEGGKP (artificial)
[30] = tested on: ZFP7263 linker TPRPPIPKP (artificial)
[31] = tested on: ZFP7263 (host, center linker TGSQKP) (artificial); experiment: ELONA
[32] = tested on: ZFP7263 linker TQRPQIPPKP center linker F2-F3 TGSQKP replaced by TQRPQIPPKP (artificial); experiment: ELONA; conditions: normalized ELISA score
[33] = tested on: ZFP7263 linker TYPRPLLAKP center linker F2-F3 TGSQKP replaced by TYPRPLLAKP (artificial); experiment: ELONA; conditions: normalized ELISA score
[34] = tested on: ZFP7263 linker TPNRCPPTKP center linker F2-F3 TGSQKP replaced by TPNRCPPTKP (artificial); experiment: ELONA; conditions: normalized ELISA score
[35] = tested on: ZFP7263 linker TPLCQRPMKQKP center linker F2-F3 TGSQKP replaced by TPLCQRPMKQKP (artificial); experiment: ELONA; conditions: normalized ELISA score
[36] = tested on: ZFP7263 linker TGGGGSQKP center linker F2-F3 TGSQKP replaced by TGGGGSQKP (artificial); experiment: ELONA; conditions: normalized ELISA score
[37] = tested on: ZFP7263 linker LRQKDERP center linker F2-F3 TGSQKP replaced by LRQKDERP (artificial); experiment: ELONA; conditions: normalized ELISA score
[38] = tested on: ZFP7263 linker TPRPPIPKP center linker F2-F3 TGSQKP replaced by TPRPPIPKP (artificial); experiment: ELONA; conditions: normalized ELISA score
[39] = tested on: ZFP7263 linker TGEGGKP center linker F2-F3 TGSQKP replaced by TGEGGKP (artificial); experiment: ELONA; conditions: normalized ELISA score
[40] = tested on: ZFP7264 linker TGEGGKP (artificial)
[41] = tested on: ZFP7264 linker LRQKDERP (artificial)
[42] = tested on: ZFP7264 linker TGLPKPKP (artificial)
[43] = tested on: ZFP7264 linker TGGGGSQKP (artificial)
[44] = tested on: ZFP7264 linker TKHGTPKHREDKP (artificial)
[45] = tested on: ZFP7264 linker TSRPRPKP (artificial)
[46] = tested on: ZFP7264 linker TLPLPRPKP (artificial)
[47] = tested on: ZFP7264 linker TLPPCFRPKP (artificial)
[48] = tested on: ZFP7264 (host, center linker TGSQKP) (artificial); experiment: ELONA; conditions: normalized ELISA score
[49] = tested on: ZFP7264 linker 1e center linker F2-F3 TGSQKP replaced by TVPRPTPPKP (artificial); experiment: ELONA; conditions: normalized ELISA score

Sequence “ACTCTGTGGAAG (double strand) [7263 yeast half-site 0-bp gap]” has an activity (normalized MEL-1) [1] of 0.05, an activity (normalized MEL-1) [2] of 0.04 and an activity (normalized MEL-1) [3] of 0.04. It also gave an activity [4] of 0.04, an activity [5] of 0.11 and an activity ([6]; yeast MEL-1 score, with invariant 7264 ZFN partner (reference)) of 1. The activity (normalized MEL-1) [7] was 0.05.
“TTAGATAAACTGTCCAAAAGGCTATC (double strand) [8196 target gap TC]” showed a binding signal (normalized ELISA) [8] of 0.01, a binding signal (normalized ELISA) [9] of 0 and a binding signal (normalized ELISA) [10] of 0.03. For the same sequence, the binding signal (normalized ELISA) [11] was 0.01, the binding signal (normalized ELISA) [12] was 0.01 and the binding signal (normalized ELISA) [13] was 0. For the same sequence, the binding signal (normalized ELISA) [14] was 0.01, the binding signal (normalized ELISA) [15] was 0.01 and the binding signal (normalized ELISA) [16] was 0.02. It also gave a binding signal (normalized ELISA) [17] of 0.02, a binding signal (normalized ELISA) [18] of 0.01 and a binding signal (normalized ELISA) [19] of 0. The binding signal (normalized ELISA) [20] was 0.02, the binding signal [21] was 0.01 and the binding signal [22] was 0. For the same sequence, the binding signal [23] was 0.01 and the binding signal [24] was 0.01.
In the case of “ACTCTGTTGGAAG (double strand) [7263 yeast half-site gap T]”, the activity (normalized MEL-1) [1] was 1.59, the activity (normalized MEL-1) [2] was 1.19 and the activity (normalized MEL-1) [3] was 1.19. For the same sequence, the activity [4] was 1.4, the activity [5] was 0.31 and the activity ([6]; normalized yeast MEL-1 score) was 0.06. It also gave an activity (normalized MEL-1) [7] of 1.06.
“TTAGCCACTCTGACTGGAAGTGTATC (double strand) [7263 target gap AC]” showed a binding signal (normalized ELISA) [25] of 0.01, a binding signal (normalized ELISA) [26] of 0.03 and a binding signal (normalized ELISA) [27] of 0.08. For the same sequence, the binding signal (normalized ELISA) [28] was 0.01, the binding signal (normalized ELISA) [29] was 0.01 and the binding signal (normalized ELISA) [30] was 0.02. It also gave a binding signal ([31]; normalized ELISA score) of 0.01, a binding signal [32] of 0.03 and a binding signal [33] of 0.03.
Work on “TTAGCCACTCTGTTGGAAGTGTATC (double strand) [7263 target gap T]” yielded a binding signal [34] of 3.16, a binding signal [35] of 4 and a binding signal [36] of 0.39. For the same sequence, the binding signal [37] was 0.13, the binding signal ([31]; normalized ELISA score) was 0.02 and the binding signal [32] was 3.05. The binding signal [33] was 3.97, the binding signal [38] was 2.09 and the binding signal [39] was 0.04.
In the case of “TTAGCCACTCTGTGGAAGTGTATC (double strand) [7263 target 0-bp gap]”, the binding signal [34] was 0.31, the binding signal [35] was 0.28 and the binding signal [36] was 0.51. The binding signal [37] was 0.25, the binding signal ([31]; ELISA normalized to host on 0-bp gap target (reference)) was 1 and the binding signal [32] was 0.15. It also gave a binding signal [33] of 0.29, a binding signal [38] of 0.14 and a binding signal [39] of 1.3.
“TTAGTTAAAGCGTTGCTCCGAATATC (double strand) [7264 target gap TT]” gave a binding signal (normalized ELISA) [40] of 0.03, a binding signal (normalized ELISA) [41] of 0.02 and a binding signal (normalized ELISA) [42] of 0.03. The binding signal (normalized ELISA) [43] was 0.03, the binding signal (normalized ELISA) [44] was 0 and the binding signal (normalized ELISA) [45] was 0.03. For the same sequence, the binding signal (normalized ELISA) [46] was 0.04, the binding signal (normalized ELISA) [47] was 0.06 and the binding signal [48] was 0. It also gave a binding signal [49] of 0.05.
